Experimental data as given in patent US20240109937A1, “BINDING PEPTIDES AND USES THEREOF” (The Johns Hopkins University, priority 2021, published 2024).

Assays:
[1] = molecular target: T1, Peptidylprolyl isomerase A (PPIA), also known as cyclophilin A (CypA), P62937; assay: method not stated; told in the description of FIG. 20
[2] = molecular target: T1, Peptidylprolyl isomerase A (PPIA), also …; assay: printed as 'Disrupts the complex AIF/Cyclophilin with a KD'; method not stated

T1 sequence (P62937 whole entry): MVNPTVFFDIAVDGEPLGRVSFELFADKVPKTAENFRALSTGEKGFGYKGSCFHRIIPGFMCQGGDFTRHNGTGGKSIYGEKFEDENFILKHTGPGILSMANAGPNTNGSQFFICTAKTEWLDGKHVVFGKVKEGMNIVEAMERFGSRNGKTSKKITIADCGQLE

## GRKKRRQRRRAQSVGVSSGKLLIKLKDGRKVETDHI (modifications not checked) [TAT-AIF (370-394)]
[1]
  Kd: 12 µM
[2]
  Kd: 5 µM
